Legend:
[1] = target: T1, human PD-1 expressed on cells (human, UniProt Q15116 25-288); assay: FACS competition binding on PD-1 expressing Jurkat cells; competitor: fluorescently labeled murine mAb BAP049; MFI of bound labeled mAb
T1 construct: whole, on cells; Treated as one molecule; also called PD-1 expressing Jurkat cells; human PD-1 transfected Jurkat cells
Protocol: The concentration of the murine mAb was determined by OD280 measurement, whereas the chimeric mAb concentrations in supernatants were determined with an ELISA using an IgG4 standard.

[2] = target: human PD-1-Ig fusion protein (human, UniProt Q15116 25-167); assay: ELISA
Sequence of human PD-1-Ig fusion protein (Q15116 25-167): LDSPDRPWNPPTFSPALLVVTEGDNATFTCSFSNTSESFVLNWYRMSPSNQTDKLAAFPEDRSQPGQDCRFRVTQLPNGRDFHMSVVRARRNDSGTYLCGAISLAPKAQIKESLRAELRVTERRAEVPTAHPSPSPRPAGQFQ

[3] = target: T2, cynomolgus PD-1 expressed on cells (cynomolgus, UniProt B0LAJ3 25-288); assay: FACS on cynomolgus T cells
T2 construct: also called cynomolgus T cells; cells transfected with cynomolgus PD-1
T2 sequence (B0LAJ3 entry or part of it limits assumed): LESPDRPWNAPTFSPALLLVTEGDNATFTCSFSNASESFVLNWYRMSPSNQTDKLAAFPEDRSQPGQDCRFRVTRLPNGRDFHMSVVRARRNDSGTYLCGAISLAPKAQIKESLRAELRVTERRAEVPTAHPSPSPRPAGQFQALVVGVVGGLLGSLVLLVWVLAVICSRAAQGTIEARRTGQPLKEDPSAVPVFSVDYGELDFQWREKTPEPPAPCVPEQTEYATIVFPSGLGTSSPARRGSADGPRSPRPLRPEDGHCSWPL

[4] = target: T1, human PD-1 expressed on cells; assay: FACS on human PD-1 transfected Jurkat cells
[5] = target: T2, cynomolgus PD-1 expressed on cells; assay: FACS on cells transfected with cynomolgus PD-1
[6] = target: T1, human PD-1 expressed on cells; assay: competition binding assay on human PD-1-expressing 300.19 cells, competitor PD-L1; competitor PD-L1
[7] = target: T1, human PD-1 expressed on cells; assay: competition binding assay on human PD-1-expressing 300.19 cells, competitor PD-L2; competitor PD-L2
[8] = target: T1, human PD-1 expressed on cells; assay: FACS blocking assay on PD-1-expressing 300.19 cells; blocked ligand at constant concentration: PD-L1-huIgG1 Fc fusion protein (legend paragraph 211 names 'PD-L1-Ig and PD-L2-Ig' for FIG. 8A); bound ligand detected with PE anti-human IgG F(ab')2
Protocol: Incubation was at 4° C. for 30 min. Bound ligand fusion proteins were detected with PE-conjugated F(ab′)2 fragment of goat anti-human IgG which doesn't recognize IgG4 mAbs (Southern Biotech 2043-09), and flow cytometry.

T1 sequence (Q15116 25-288): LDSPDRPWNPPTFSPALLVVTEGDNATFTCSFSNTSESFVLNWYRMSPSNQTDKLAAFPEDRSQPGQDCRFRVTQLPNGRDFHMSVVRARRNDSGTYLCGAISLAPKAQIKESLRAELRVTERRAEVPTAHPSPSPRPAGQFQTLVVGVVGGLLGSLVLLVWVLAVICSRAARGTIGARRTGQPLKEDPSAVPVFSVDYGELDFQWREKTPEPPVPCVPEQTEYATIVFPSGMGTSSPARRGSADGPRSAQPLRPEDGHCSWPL

| binding result [1] | Kd [2] | Kd [3] | Kd [4] | Kd [5] | IC50 [6] | IC50 [7] | IC50 (read off the curve) [8] | Binder |
| --- | --- | --- | --- | --- | --- | --- | --- | --- |
| binds | – | – | – | – | – | – | – | chimeric antibody BAP049-chi (Ser) (antibody, human IgG4 S228P, kappa, V domains shown, also called Chi mAb (Ser)) VH: QVQLQQSGSELVRPGASVKLSCKASGYTFTTYWMHWVRQRPGQGLEWIGNIYPGTGGSNFDEKFKNRTSLTVDTSSTTAYMHLASLTSEDSAVYYCTRWTTGTGAYWGQGTTVTVSS VL: DIVMTQSPSSLTVTAGEKVTMSCKSSQSLLDSGNQKNFLTWYQQKPGQPPKLLIFWASTRESGVPDRFTGSGSVTDFTLTISSVQAEDLAVYYCQNDYSYPSTFGQGTKVEIKR |
| – | 0.04 nM | 0.4 nM | 0.06 nM | 0.6 nM | 0.3 nM | 0.9 nM | ~0.6 µg/mL | murine anti-PD-1 monoclonal antibody BAP049 (antibody, V domains shown, the murine constant regions are not; also called murine mAb BAP049; Mu mAb) VH: QVQLQQSGSELVRPGASVKLSCKASGYTFTTYWMHWVRQRPGQGLEWIGNIYPGTGGSNFDEKFKNRTSLTVDTSSTTAYMHLASLTSEDSAVYYCTRWTTGTGAYWGQGTLVTVSA VL: DIVMTQSPSSLTVTAGEKVTMSCKSSQSLLDSGNQKNFLTWYQQKPGQPPKLLIFWASTRESGVPDRFTGSGSVTDFTLTISSVQAEDLAVYYCQNDYSYPCTFGGGTKLEIK |

Source: patent publication US20180155427A1 (Novartis, published 2018)
